The chains are these.
B1: SEQ ID NO 7 (VHH)
VHH: QVQLVESGGGLVQAGGSLRLSCVASGRTFSSYDMGWFRQAPGEEREAVAAINWSGGSTYYADSVKGRFTISSDNAKNTVYLQMNNLKPEDTAVYYCAARQVPGWWDYWGQGTQVTVSS
notes: Expressed in E. coli, nickel column purified; Only the CDRs are printed; also called 蛋白7
B2: SEQ ID NO 5 (VHH)
VHH: QVQLVESGGGLAQAGGSLRLSCAASGRTASGYAMGWFRQAPGKEREAVAAIMWSGGSTYYADSVKGRFTISRDNAKNTVYLQMNSLKTEDTAVYYCAARTDGSGWWDYWGQGTQVTVSS
notes: Expressed in E. coli, nickel column purified; Only the CDRs are printed; also called 蛋白5
B3: SEQ ID NO 4 (VHH)
VHH: QVRLVESGGGLVQPGGSLRLSCTASGGTFDRYNVAWFRQAPGEEREAVASIMWSGDNTYYANSVKGRFTISRDNAKNTVYLQMNSLKPEDTAVYYCAARIQEQGWWDYWGQGTQVTVSS
notes: Expressed in E. coli, nickel column purified; Only the CDRs are printed; also called 蛋白4
B4: SEQ ID NO 3 (VHH)
VHH: QVQVAESGGGLVQSGGSMNLSCTASGNLFSVDAMGWFRQAPGEEREAVAAIMWSGDSTYYANAVKGRFTISRDNAKNTVYLQMNSLKPEDTAVYYCAARLQEEGWWDYWGQGTQVTVSS
notes: Expressed in E. coli, nickel column purified; Only the CDRs are printed; also called 蛋白3
B5: SEQ ID NO 6 (VHH)
VHH: QVQVVESGGGLVQPGGSLRLSCAASGRTVSSHAMGWFRQAPGEEREAVAAIMWSGDSTYYANAVKGRFTISRDNAKNTVYLQMNSLKPEDTAVYYCAARLQEEGWWDYWGQGTQVTVSS
notes: Expressed in E. coli, nickel column purified; Only the CDRs are printed; also called 蛋白6

T1 sequence (chain, as listed by the source, chain 1 of 2, other chains not shown): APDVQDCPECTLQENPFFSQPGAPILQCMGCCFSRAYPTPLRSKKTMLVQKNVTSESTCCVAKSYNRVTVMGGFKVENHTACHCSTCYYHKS

This assay addresses T1, 人绒毛膜促性腺激素(HCG) (human, UniProt P0DN86 21-165).
T1 construct: Alpha/beta heterodimer coated on ELISA plates; The source of the HCG preparation is lost from the text (gap after 'HCG |'); also called HCG抗原
In words: ELISA, HCG coated at 2 μg/ml, VHH detected with anti-6xHis-HRP, 4-parameter fit. (In general: ELISA stands for enzyme-linked immunosorbent assay.)
As a reminder, the EC50 is the midpoint of the concentration-response curve. Read a high EC50 as a less potent agent. Regarding B1, the EC50 turned out to be 0.014 µg/mL.
The same measure for B2: 0.00946 µg/mL.
The same measure for B3: 0.00505 µg/mL; for B4: 0.0259 µg/mL.
Under B5 stands 0.0138 µg/mL.

The values above are taken from patent CN113698481A (SUZHOU CENTERGENE PHARMACEUTICALS CO LTD, dated 2021).
